The results in this text go back to patent publication US20050260661A1, “Assays for the identification of modulators of MHC class II expression” (priority 2004, published 2005).

Test [1] has as its target T1, interaction between CIITA and Flag-RFXANK (Homo sapiens, UniProt P33076).
T1 construct: made in house; host or cells: Sf9 insect cells (recombinant baculovirus); CIITA co-infected with a BirA baculovirus
T1 sequence (P33076 1-1130): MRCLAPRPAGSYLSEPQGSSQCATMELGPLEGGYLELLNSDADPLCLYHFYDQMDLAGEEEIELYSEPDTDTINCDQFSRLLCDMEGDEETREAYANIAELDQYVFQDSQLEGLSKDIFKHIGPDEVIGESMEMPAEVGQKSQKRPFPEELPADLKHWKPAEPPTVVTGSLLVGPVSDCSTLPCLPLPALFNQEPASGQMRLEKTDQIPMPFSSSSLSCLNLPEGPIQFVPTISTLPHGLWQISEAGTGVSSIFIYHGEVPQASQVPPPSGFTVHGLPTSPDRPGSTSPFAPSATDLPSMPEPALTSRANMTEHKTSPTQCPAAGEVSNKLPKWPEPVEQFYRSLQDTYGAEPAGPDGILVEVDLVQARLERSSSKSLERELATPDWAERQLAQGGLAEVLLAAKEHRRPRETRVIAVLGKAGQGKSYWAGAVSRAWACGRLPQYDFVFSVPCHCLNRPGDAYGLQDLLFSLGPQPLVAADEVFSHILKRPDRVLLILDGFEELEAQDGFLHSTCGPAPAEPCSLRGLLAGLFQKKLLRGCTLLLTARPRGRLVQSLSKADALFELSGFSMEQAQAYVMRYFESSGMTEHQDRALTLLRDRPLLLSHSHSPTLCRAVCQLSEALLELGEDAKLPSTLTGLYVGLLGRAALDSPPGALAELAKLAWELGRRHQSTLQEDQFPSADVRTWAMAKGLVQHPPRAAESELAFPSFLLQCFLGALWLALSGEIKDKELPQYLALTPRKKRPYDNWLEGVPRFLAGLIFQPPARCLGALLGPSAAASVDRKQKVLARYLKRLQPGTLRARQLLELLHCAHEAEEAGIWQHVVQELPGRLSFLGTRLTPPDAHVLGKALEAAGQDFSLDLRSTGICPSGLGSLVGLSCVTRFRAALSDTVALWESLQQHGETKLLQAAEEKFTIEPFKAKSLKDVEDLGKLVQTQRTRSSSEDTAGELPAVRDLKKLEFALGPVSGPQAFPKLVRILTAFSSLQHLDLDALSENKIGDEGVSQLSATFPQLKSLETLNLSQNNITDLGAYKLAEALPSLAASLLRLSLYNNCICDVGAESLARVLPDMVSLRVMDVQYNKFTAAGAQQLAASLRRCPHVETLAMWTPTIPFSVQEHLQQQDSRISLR
Nature of the test: CIITA/RFXANK interaction assay, competition with untagged RFXANK. The settings on record: FIG. 7. It counts as binding. The protocol:
Plasmids. The CIITA gene sequence was cloned into a modified pBAC-2 cp vector (Novagen) with a biotinylation tag inserted at the 5′ end of the gene. The RFXANK gene sequence containing a Flag tag at its N-terminus was cloned into a pFBHT vector (Invitrogen). These plasmids were used to generate recombinant baculoviruses according to standard procedures. Protein production: Sf9 cells grown in SF-900II medium (Invitrogen) were infected at MOI of 10 for 72 h before harvesting. To obtain in vivo biotinylated CIITA, Sf9 cells were co-infected with an E. coli biotin ligase expressing baculovirus (BirA gene) at a MOI of 1. Protein were purified using metal chelating affinity chromatography on HiTrap chelating column (Pharmacia). Purified fractions were pooled and quantified using ESL protein quantification kit (Roche) and the extent of CIITA biotinylation was estimated by pulldown experiments with Streptavidin-coated magnetic beads followed by PAGE analysis.
Assay. […] Wells were washed 5 times with 200 μl of wash solution (PBS; 0.05% Tween 20) and the adequate substrates for HRP were added to the well for either colorimetry, fluorescence or luminescence detection. […]

Test [2] addresses T2, Biotinylated-CIITA (UniProt P33076 1-1130, biotin on the biotinylation tag (in vivo biotinylation by co-expressed E. coli biotin ligase BirA; level close to 100%)).
T2 construct: Made in Sf9 cells from a modified pBAC-2cp baculovirus vector; also called recombinant biotinylated-CIITA; not shown: biotinylation tag inserted at the 5' end of the gene
T2 sequence (looked up): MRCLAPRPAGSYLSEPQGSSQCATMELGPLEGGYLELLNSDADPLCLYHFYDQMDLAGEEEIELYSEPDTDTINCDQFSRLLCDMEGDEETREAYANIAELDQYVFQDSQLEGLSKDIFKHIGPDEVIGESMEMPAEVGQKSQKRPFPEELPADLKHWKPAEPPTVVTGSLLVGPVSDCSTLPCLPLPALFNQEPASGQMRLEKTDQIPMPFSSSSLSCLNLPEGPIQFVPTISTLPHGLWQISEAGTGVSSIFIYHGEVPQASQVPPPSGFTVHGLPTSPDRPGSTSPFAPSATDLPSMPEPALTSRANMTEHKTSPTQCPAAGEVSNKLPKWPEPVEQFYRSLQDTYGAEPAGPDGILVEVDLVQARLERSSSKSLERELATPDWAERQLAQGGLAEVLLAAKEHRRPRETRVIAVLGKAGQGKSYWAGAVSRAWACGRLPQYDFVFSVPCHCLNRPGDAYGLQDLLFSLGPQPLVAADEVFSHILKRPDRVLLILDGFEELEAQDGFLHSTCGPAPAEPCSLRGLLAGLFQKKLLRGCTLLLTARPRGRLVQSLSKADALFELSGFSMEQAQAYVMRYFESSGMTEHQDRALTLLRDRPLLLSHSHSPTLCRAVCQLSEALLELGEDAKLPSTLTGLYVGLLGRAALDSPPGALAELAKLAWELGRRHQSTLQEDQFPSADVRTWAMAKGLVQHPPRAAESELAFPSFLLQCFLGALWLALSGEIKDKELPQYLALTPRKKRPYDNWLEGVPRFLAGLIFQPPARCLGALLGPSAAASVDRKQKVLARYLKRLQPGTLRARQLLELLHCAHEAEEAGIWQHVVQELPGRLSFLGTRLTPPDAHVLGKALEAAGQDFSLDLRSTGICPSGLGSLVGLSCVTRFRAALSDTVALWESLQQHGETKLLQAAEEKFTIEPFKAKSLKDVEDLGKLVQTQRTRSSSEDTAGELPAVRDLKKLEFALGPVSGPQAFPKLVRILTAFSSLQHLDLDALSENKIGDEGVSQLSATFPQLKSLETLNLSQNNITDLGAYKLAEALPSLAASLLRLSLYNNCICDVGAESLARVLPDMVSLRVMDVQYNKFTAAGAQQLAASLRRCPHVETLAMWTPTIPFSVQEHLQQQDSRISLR
In words: solid-phase plate assay: biotinylated CIITA on a streptavidin well, Flag-RFXANK detected with M2:HRP, colorimetric; assay and negative control each performed 48 times. On the procedure: Assay. Biotinylated-CIITA (0.5 μg) and 0.8 μg of Flag-RFXANK in 100 μl of assay buffer (50 mM Hepes pH7.8; 10% glycerol; 5 mM MgCl₂; 0.1 mM EDTA; 0.01% NP-40; 200 mM KCl; 0.5% BSA; 0.1% Tween 20; 2 mM DTT) were incubated in a streptavidin-coated microwell for 2 h at room temperature. Wells containing no protein, only biotinylated CIITA or Flag RFXANK were included as controls. Wells were washed 5 times with 200 μl of wash solution (PBS; 0.05% Tween 20). 100 μl of Assay Buffer containing 0.5 μg/ml M2:HRP antibody (Sigma) was added to each well and incubated for 1 h at room temperature. Wells were washed 5 times with 200 μl of wash solution (PBS; 0.05% Tween 20) and the adequate substrates for HRP were added to the well for either colorimetry, fluorescence or luminescence detection.
To examine its reproducibility, the assay and negative control were performed 48 times. […] Increasing amounts of RFXANK were added to the wells containing biotinylated CIITA and Flag-RFXANK in the same assay as described above.

B1: RFXANK having an N-terminal Flag tag (Flag-RFXANK) (other, UniProt O14593 1-260, looked up)
chain: MELTQPAEDLIQTQQTPASELGDPEDPGEEAADGSDTVVLSLFPCTPEPVNPEPDASVSSPQAGSSLKHSTTLTNRQRGNEVSALPATLDSLSIHQLAAQGELDQLKEHLRKGDNLVNKPDERGFTPLIWASAFGEIETVRFLLEWGADPHILAKERESALSLASTGGYTDIVGLLLERDVDINIYDWNGGTPLLYAVRGNHVKCVEALLARGADLTTEADSGYTPMDLAVALGYRKVQQVIENHILKLFQSNLVPADPE
notes: not shown: Flag tag at the N-terminus
For B1, the “reduction of signal of the CIITA/Flag-RFXANK interaction” value in test [1] (equivalent amounts of Flag-RFXANK and RFXANK) is “approximately 50%”. Also, the “competition of Flag-RFXANK for binding to CIITA” value in test [1] (increasing amounts of RFXANK added to wells containing biotinylated CIITA and Flag-RFXANK) is given as “specifically competed by RFXANK for binding to CIITA in a dose-dependent manner”. For the same molecule, in test [2], the “signal to background ratio (S/B)” value is 11.8.
